± gives the uncertainty stated by the source.
Test: protein stability index of a GFP-peptide fusion (yeast GPS) (PSI 1-4); higher = more stable; sorted into four equal gates, so the index is relative within each strain
Outline: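 The protein stability index combines read frequencies across sorting gates, each weighted by its gate number and then summed. To obtain those frequencies, a pooled yeast library of GFP fusions to tiled 17-residue yeast protein peptides, on a plasmid also expressing Cherry, was grown to mid-log phase in leucine-free medium. The cells were sorted into four equal gates by GFP/Cherry ratio before plasmid amplification by PCR and Illumina sequencing.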

Sequence | protein stability index (doa10∆) | protein stability index (pdr5∆) | protein stability index (san1∆) | protein stability index (ubr1∆)
SSKKSKRLDKVGKKKGG [LRP1] | 2 ± 0.08 | 1.17 ± 0.068 | 1.91 ± 0.12 | 1.43 ± 0.057
YAKEDAFSYPRMYEEAS [RPN2] | 2.66 ± 0.091 | 1.35 ± 0.082 | 1.27 ± 0.11 | 1.43 ± 0.058
RISEKSVRKFLEIALFK [RPO31] | 1.93 ± 0.14 | 1.15 ± 0.13 |  | 
DTPTSGKHNLTIWCVCD [BRR2] | 3.05 ± 0.11 | 3.22 ± 0.1 | 3.14 ± 0.075 | 3.08 ± 0.082
KKPSPQTIPIQIYGFEG [YGR119C/NUP57] | 2.61 ± 0.26 | 3.06 ± 0.22 | 2.49 ± 0.15 | 3.08 ± 0.17
LEQIQVQLKDANSQIQA [YIL149C/MLP2] | 2.55 ± 0.12 | 2.41 ± 0.27 | 2.45 ± 0.21 | 2.43 ± 0.15
DIIVAIKIFELKLPADA [IRR1] | 1.54 ± 0.078 | 1.21 ± 0.071 | 1.59 ± 0.14 | 1.83 ± 0.052
VARIPRVGGGGTGRSGQ [RPL4A] | 3.46 ± 0.15 | 3.39 ± 0.13 | 3.48 ± 0.072 | 2.57 ± 0.086
HDIIEGINAGEIEIPEN [RPL12A] | 2.75 ± 0.071 | 2.52 ± 0.072 | 2.5 ± 0.077 | 2.4 ± 0.06
IAKIKKVCECVCMHCGK [RPO21] | 1.92 ± 0.057 | 2.28 ± 0.067 | 2.7 ± 0.091 | 2.43 ± 0.046
FGPHVDVNDVLTKYIRS [GRR1] | 3.3 ± 0.056 | 3.2 ± 0.061 | 3.41 ± 0.046 | 3.29 ± 0.04
ELISFKERTKSLEHELK [YIL149C/MLP2] | 2.24 ± 0.062 | 2.64 ± 0.064 | 2.78 ± 0.073 | 2.78 ± 0.083
EVPEGVTVSIKSRIVKV [RPL9A] | 1.51 ± 0.064 | 1.86 ± 0.061 | 1.57 ± 0.097 | 2.26 ± 0.091
LISSSLSNLSKDIKANL [YCS4] | 2.26 ± 0.057 | 1.72 ± 0.061 | 1.87 ± 0.1 | 2.35 ± 0.067
LGIALIALGEDIGKEMS [RPN1] | 3.01 ± 0.081 | 3.01 ± 0.091 | 2.9 ± 0.1 | 3.02 ± 0.06
AFVPKKRKTNIIMFVGL [SRP54] | 2.03 ± 0.1 | 2.16 ± 0.088 | 1.86 ± 0.18 | 2.26 ± 0.051
RRADVKTATVKINKKLN [RPL38] | 1.83 ± 0.058 | 1.84 ± 0.041 | 2.17 ± 0.086 | 1.62 ± 0.039
STRVEFEKLYSDLMKFL [FAS2] | 3.45 ± 0.3 | 3.27 ± 0.2 | 3.26 ± 0.15 | 
ARVTGGMKVKADRDESS [RPS14B] | 2.5 ± 0.072 | 2.92 ± 0.067 | 3.12 ± 0.05 | 3.03 ± 0.043
KTTRLLLIIRSLKNTDA [YJL039C/NUP192] | 1.51 ± 0.056 | 1.31 ± 0.053 | 1.19 ± 0.12 | 1.11 ± 0.059

Sequence | protein stability index (doa10∆) | protein stability index (pdr5∆) | protein stability index (san1∆) | protein stability index (ubr1∆)
SGWGAVVYIIKKDEVVK [PUP3] | 3.25 ± 0.088 | 2.96 ± 0.072 | 3.33 ± 0.052 | 3.27 ± 0.057
KPANASHAIRLGNGVAC [RGR1] | 2.71 ± 0.06 | 3.06 ± 0.052 | 2.52 ± 0.058 | 3.01 ± 0.051
LNEYKRETLVKTWEKVT [SMC2] | 1.67 ± 0.046 | 1.84 ± 0.046 | 1.77 ± 0.083 | 2.19 ± 0.039
KKRSHHGKASRQQYYSG [SNF6] | 3.05 ± 0.088 | 3.11 ± 0.062 | 2.92 ± 0.065 | 2.98 ± 0.079
LSTLRMEADPSLHPLFE [RPN9] | 2.54 ± 0.057 | 2.33 ± 0.042 | 2.18 ± 0.096 | 2.41 ± 0.044
ARKETYSSYIYKVLKQT [HTB1] | 2.89 ± 0.058 | 2.43 ± 0.048 | 1.97 ± 0.072 | 2.47 ± 0.037
MAPYLPGSRASSRFIKG [RPN2] | 2.44 ± 0.059 | 2.66 ± 0.064 | 2.45 ± 0.063 | 2.53 ± 0.044
FILLDRLRQFNLQPIST [SMC4] | 2.22 ± 0.04 | 1.56 ± 0.037 | 1.49 ± 0.061 | 1.32 ± 0.042
ELNQDRLGGDDLRIRIK [SNF5] | 3.31 ± 0.11 | 3.36 ± 0.19 | 3.21 ± 0.12 | 2.91 ± 0.15
IKKPTSAVVSSNASRRK [RPN4] | 2.47 ± 0.17 | 2.3 ± 0.17 | 2.36 ± 0.076 | 2.89 ± 0.27
SAEEQLRKIDMLQKKLV [SRB7] | 2.64 ± 0.09 | 2.58 ± 0.065 | 1.88 ± 0.097 | 2.62 ± 0.043
TFTKKCLENARSQISEK [SIR4] | 3.2 ± 0.063 | 3.12 ± 0.057 | 3.15 ± 0.05 | 3.07 ± 0.041
QLKIQNRQAAASVVPSA [RPL12A] | 1.82 ± 0.035 | 2.48 ± 0.042 | 2.05 ± 0.051 | 2.08 ± 0.03
SSSSLECATCHGNLASC [RPO31] | 2.79 ± 0.046 | 3.04 ± 0.058 | 3.05 ± 0.049 | 2.95 ± 0.037
DELILEAKERYTDRDQD [NNF1] |  | 3.68 ± 0.27 | 3.58 ± 0.1 | 3.52 ± 0.2
TIIFIDELDAIGTKRFD [RPT5] | 2.75 ± 0.069 | 2.33 ± 0.045 | 2.5 ± 0.075 | 2.42 ± 0.059
LLEGLNEKIEKRSDLTG [UBP6] | 2.89 ± 0.092 | 3.11 ± 0.063 | 3.18 ± 0.081 | 3.32 ± 0.098
SDEERDDEDDEHNPTIV [AAR2] | 3.53 ± 0.086 | 3.32 ± 0.089 | 3.09 ± 0.071 | 3.31 ± 0.11
NEGVPSPMLSISNLTQE [FAS1] | 2.84 ± 0.055 | 2.94 ± 0.062 | 2.96 ± 0.058 | 3.12 ± 0.059
RATPATLTELKDALSNS [SRB2] | 3.11 ± 0.12 | 3.11 ± 0.11 | 3.15 ± 0.12 | 3.42 ± 0.1
